# Measured values: publication doi:10.1101/2023.04.18.537051 (bioRxiv, 2023)
# B1: ribosomal protein uS9 of the M. smegmatis 70S ribosome (natural protein)
# chain: MTDVTETEVVTESAEPREPVIIDRPIQTVGRRKEAVVRVRLVPGTGQFNLDGRTLENYFPNKVHQQLIKAPLVTVDRVDQFDIYAHLDGGGPSGQAGALRLAIARALILVQPEDRPALKKAGFLTRDPRAIERKKYGLKKARKAPQYSKR
# B2: ribosomal protein uS11 of the M. smegmatis 70S ribosome (natural protein)
# chain: not shown
# B3: RafH (ribosome associated factor under hypoxia), M. smegmatis MSMEG_3935 (natural protein)
# chain: MDVDVSTDGELPGAAEYAREKIGRLSRRAHRPVLHARVRLTRHGDPAVERPVIAQANLDVNGRQVRAQVEGVNAREAVDRLEARLRSRLERIAEHWEARRGGVPAEAGREWRHESEPARRPGYFPRPPEERRIIRRKSFSMVPCTVDEAALEMEMLDYDFHLFTEKGTGFAAVLYKGGPTGYRLVLVIPVPADELSPFEKPITISTHPAPCLTQRDAVERLGLLGLPFLFYIDAAEGRASVIYRRYDGHYGLITPADG
# B4: ribosomal protein uS2 of the M. smegmatis 70S ribosome (natural protein)
# chain: MAVVTMKQLLDSGAHFGHQTRRWNPKMKRFIFTDRNGIYIIDLQQTLTYIDKAYEFVKETVAHGGTVLFVGTKKQAQESIAEEATRVGMPYVNQRWLGGMLTNFSTVHKRLQRLKELEAMEQTGGFEGRTKKEILMLTREKNKLERSLGGIRDMQKVPSAVWVVDTNKEHIAVGEARKLGIPVIAILDTNCDPDVVDYPIPGNDDAIRSAALLTKVIASAVAEGLQARAGQGSGEKPAEGAEPLAEWEQELLAGATAGAADASAEGAAAPESSTDAS
# How the values were obtained:
# [1] = target: B3; test: cryo-EM structure
# [2] = target: T1, ribosomal protein bS1 of the M. smegmatis 70S ribosome (M. smegmatis (mc2155), UniProt A0QYY6 1-479); test: cryo-EM structure
# T1 sequence: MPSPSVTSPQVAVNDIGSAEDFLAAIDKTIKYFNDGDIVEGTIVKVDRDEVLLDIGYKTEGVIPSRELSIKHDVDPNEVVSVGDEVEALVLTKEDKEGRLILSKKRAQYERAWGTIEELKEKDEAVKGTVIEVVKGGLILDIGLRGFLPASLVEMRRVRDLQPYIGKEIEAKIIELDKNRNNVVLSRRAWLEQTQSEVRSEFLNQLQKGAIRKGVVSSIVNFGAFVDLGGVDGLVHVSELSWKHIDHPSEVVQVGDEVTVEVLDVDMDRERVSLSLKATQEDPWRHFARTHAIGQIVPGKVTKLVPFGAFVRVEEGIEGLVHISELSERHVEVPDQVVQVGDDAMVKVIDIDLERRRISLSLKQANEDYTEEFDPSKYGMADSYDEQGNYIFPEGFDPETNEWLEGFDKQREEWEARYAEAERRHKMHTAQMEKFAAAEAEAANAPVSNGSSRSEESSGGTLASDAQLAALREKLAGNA
Binder,binding result [1],binding result [2]
B1,binds,–
B2,binds,–
B3,–,binds
B4,–,binds
